Results from patent US20170233490A1 (Hoffmann-La Roche, published 2017).

What was measured:
HER3 ECD-HRG complex [1] = target: T1, HER3 ECD-HRG complex (human, UniProt P21860 20-643); experiment: SPR Biacore 3000, antibody captured via anti-human Fc, 25 C
T1 construct: HER3 ECD preincubated with a 3- to 6-fold molar excess of Heregulin ('open' conformation); biotinylated Her3-ECD in the ribosome display; also called HER3-ECD/HRG1β
Description: (§1) A CM5 series sensor was mounted into the system and was normalized in HBS-ET buffer (10 mM HEPES pH 7.4, 150 mM NaCl, 3 mM EDTA, 0.005% w/v Tween 20) according to the manufacturer's instructions. The sample buffer was the system buffer supplemented with 1 mg/ml CMD (Carboxymethyldextran, Sigma #86524). The system operated at 25° C. 10000 RU monoclonal murine anti-human Fc antibody (MAK<h-Fc> M-R10Z8 E9, Roche Diagnostics GmbH, Penzberg, Germany) were immobilized using EDC/NHS chemistry on all four flow cells. The sensor was deactivated using 1M ethanolamine.

HER3 ECD-HRG complex [2] = target: T1, HER3 ECD-HRG complex; experiment: SPR Biacore 3000, sequential injection: HER2-ECD first, then HER3-ECD/HRG1β, 270 nM each
Description: as §1
(§2) The association and dissociation rates were monitored for 10 minutes and 8 minutes, respectively.

HER3 ECD-HRG complex [3] = target: T1, HER3 ECD-HRG complex; experiment: SPR Biacore 3000, sequential injection: HER3-ECD/HRG1β first, then HER2-ECD, 270 nM each
Description: as §1, §2

| Kd (HER3 ECD-HRG complex [1]) [nM] | MR (Molar Ratio) (HER3 ECD-HRG complex [1]) | koff (HER3 ECD-HRG complex [1]) [s⁻¹] | kon (HER3 ECD-HRG complex [1]) [M⁻¹ s⁻¹] | t1/2-diss (HER3 ECD-HRG complex [1]) [min] | MR (molar ratio), second injection (HER3 ECD-HRG complex [2]) | MR (molar ratio), first injection (HER3 ECD-HRG complex [3]) | Binder |
| --- | --- | --- | --- | --- | --- | --- | --- |
| 2.1 | 0.6 | 0.00023 | 110000 | 51 | – | – | DIB-MoAb (monovalent antibody based on M-05-74) (antibody, V domains shown, also called DIB-74 in the monovalent MoAb format; monovalent M-05-74) VH: QVQLQQSGAELAKPGASVKMSCKTSGYTLTDYWIHWVKQRPGQGLEWIGYINPYTGYTESNQKFKDKATLTADKSSNTAYIQLSSLTSEDSAVYYCARPYYYGDYWGQGTTLTVSS VL: QIVLTQSPAIMSASPGERVTITCSASSSVSYMHWFQQKPGTSPKLLIYSTSNLASGVPARFSGSGSGTSYSLTISRMEAEDAATYYCQQRSSYPFTFGSGTKLEIK |
| 3.9 | 0.5 | 0.00033 | 84000 | 35 | 0.7 | 0.8 | bispecific HER3/HER2 antibody DIBxPERT (bispecific antibody, human IgG1, kappa, also called DIBxPERT CrossMab) heavy 1: not shown light 1: DIQMTQSPSSLSASVGDRVTITCKASQDVSIGVAWYQQKPGKAPKLLIYSASYRYTGVPSRFSGSGSGTDFTLTISSLQPEDFATYYCQQYYIYPYTFGQGTKVEIKSSASTKGPSVFPLAPSSKSTSGGTAALGCLVKDYFPEPVTVSWNSGALTSGVHTFPAVLQSSGLYSLSSVVTVPSSSLGTQTYICNVNHKPSNTKVDKKVEPKSC heavy 2: not shown light 2: QIVLTQSPAIMSASPGERVTITCSASSSVSYMHWFQQKPGTSPKLLIYSTSNLASGVPARFSGSGSGTSYSLTISRMEAEDAATYYCQQRSSYPFTFGSGTKLEIKRTVAAPSVFIFPPSDEQLKSGTASVVCLLNNFYPREAKVQWKVDNALQSGNSQESVTEQDSKDSTYSLSSTLTLSKADYEKHKVYACEVTHQGLSSPVTKSFNRGEC |
